# B1: pentynyl-dU clone 24 60-mer (ssDNA)
# DNA: TAGAATACTCAAGCTTCGACGGTATATAGTATAGTATTGGCAGTTTGGATCCCCGGGTAC
# modifications: X 5-pentynyl-dU; T in 3' constant region also 5-pentynyl-dU; T in 5' constant region unmodified [23,25,27,30,32,35,37,38 (X = 5-pentynyl-dU); 44,45,46,50,58 (3' constant region T = 5-pentynyl-dU)]
# Assays:
# [1] = biological target: T1, thrombin (alpha, Factor IIa) (Homo sapiens, UniProt P00734;P00734 P00734:328-363,P00734:364-622); assay: inhibition; 100 nM; no DNA 23 s
# [2] = biological target: T1, thrombin (alpha, Factor IIa); assay: filter
# [3] = biological target: T1, thrombin (alpha, Factor IIa); assay: inhibition
# Factor X = Factor X (UniProt P00742;P00742 P00742:41-179,P00742:183-488); assay: EMSA; 500 nM protein, 4 C; conditions: tags: Haematologic Technologies HCXA-0060
# trypsin = trypsin (UniProt P00760 P00760:24-246); assay: EMSA; 500 nM protein, 4 C
# chymotrypsin = chymotrypsin (UniProt P00766;P00766;P00766 P00766:1-13,P00766:16-146,P00766:149-245); assay: EMSA; 500 nM protein, 4 C
# prothrombin = prothrombin (Homo sapiens, UniProt P00734 P00734:44-622); assay: EMSA; 500 nM protein, 4 C
# serum albumin = serum albumin (Homo sapiens, UniProt P02768 P02768:25-609); assay: EMSA; 500 nM protein, 4 C
# Sequence of serum albumin (P02768 25-609, one chain of several): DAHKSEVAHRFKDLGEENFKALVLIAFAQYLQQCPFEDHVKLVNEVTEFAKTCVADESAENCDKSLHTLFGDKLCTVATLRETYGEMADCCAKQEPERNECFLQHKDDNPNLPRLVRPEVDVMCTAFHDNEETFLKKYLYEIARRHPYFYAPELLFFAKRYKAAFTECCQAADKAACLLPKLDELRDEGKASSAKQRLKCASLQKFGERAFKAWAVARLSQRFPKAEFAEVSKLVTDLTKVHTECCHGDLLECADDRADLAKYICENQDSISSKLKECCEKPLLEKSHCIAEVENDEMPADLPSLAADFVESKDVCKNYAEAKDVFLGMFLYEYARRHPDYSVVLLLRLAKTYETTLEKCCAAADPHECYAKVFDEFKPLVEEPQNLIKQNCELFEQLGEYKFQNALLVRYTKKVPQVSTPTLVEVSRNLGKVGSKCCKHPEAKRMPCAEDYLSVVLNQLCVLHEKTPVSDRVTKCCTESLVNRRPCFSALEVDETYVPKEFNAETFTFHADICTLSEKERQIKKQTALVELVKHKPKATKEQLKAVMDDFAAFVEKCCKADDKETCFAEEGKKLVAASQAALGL
# Sequence of Factor X (P00742 41-179, chain 1 of 2): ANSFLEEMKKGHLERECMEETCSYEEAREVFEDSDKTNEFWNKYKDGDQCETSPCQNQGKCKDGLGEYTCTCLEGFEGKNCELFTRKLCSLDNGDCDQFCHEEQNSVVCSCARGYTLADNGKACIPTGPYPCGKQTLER
# Sequence of Factor X (P00742 183-488, chain 2 of 2): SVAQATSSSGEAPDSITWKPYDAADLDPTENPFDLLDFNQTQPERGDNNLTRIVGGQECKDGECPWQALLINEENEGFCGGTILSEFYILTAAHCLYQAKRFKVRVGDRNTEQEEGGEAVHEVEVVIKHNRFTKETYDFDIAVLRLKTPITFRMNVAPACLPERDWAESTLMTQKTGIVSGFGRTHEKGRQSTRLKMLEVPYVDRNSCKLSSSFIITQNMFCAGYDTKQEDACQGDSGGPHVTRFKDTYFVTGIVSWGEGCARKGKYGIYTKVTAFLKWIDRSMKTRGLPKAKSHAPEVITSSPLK
# Sequence of trypsin (P00760 24-246, one chain of several): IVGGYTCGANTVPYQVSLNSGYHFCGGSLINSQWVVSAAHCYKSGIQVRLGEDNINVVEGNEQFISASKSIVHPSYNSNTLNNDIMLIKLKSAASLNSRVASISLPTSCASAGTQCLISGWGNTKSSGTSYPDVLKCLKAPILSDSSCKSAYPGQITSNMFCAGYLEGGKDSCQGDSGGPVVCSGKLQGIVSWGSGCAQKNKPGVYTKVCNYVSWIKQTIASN
Binder,activity [1] [s clot time],Ki [3] [nM],other results
"GGTTGGTGTGGTTGG (ssDNA, Z 5-(1-propynyl)-2'-deoxyuridine [4 (Z = 5-(1-propynyl)-2'-deoxyuridine)]) [15-mer propynyl-dU 4]",187,–,–
GGTTGGGCTGGTTGGGTTGGG (ssDNA) [21-mer thrombin aptamer],–,~100,Kd [2]: ~350 nM
"GGTTGGTGTGGTTGG (ssDNA, Z 5-(1-propynyl)-2'-deoxyuridine [12 (Z = 5-(1-propynyl)-2'-deoxyuridine)]) [15-mer propynyl-dU 12]",129,–,–
"GGTTGGTGTGGTTGG (ssDNA, Z 5-(1-propynyl)-2'-deoxyuridine [7 (Z = 5-(1-propynyl)-2'-deoxyuridine)]) [15-mer propynyl-dU 7]",118,–,–
"GGTTGGTGTGGTUGG (ssDNA, U13 is 5-(1-pentynyl)-2'-deoxyuridine) [15-mer pentynyl-U13]",–,20,–
"GGTTGGTGTGGTTGG (ssDNA, Z 5-(1-propynyl)-2'-deoxyuridine [9 (Z = 5-(1-propynyl)-2'-deoxyuridine)]) [15-mer propynyl-dU 9]",120,–,–
"GGTTGGUGUGGTTGG (ssDNA, dU at 7 and 9) [15-mer dU7 dU9]",–,15,–
"GGTTGGTGTGGTTGG (ssDNA, Z 5-(1-propynyl)-2'-deoxyuridine [3 (Z = 5-(1-propynyl)-2'-deoxyuridine)]) [15-mer propynyl-dU 3]",138,–,–
B1,–,–,Kd [2]: 400 nM; binding result (Factor X): no binding; binding result (trypsin): no binding; binding result (chymotrypsin): no binding; binding result (prothrombin): no binding; binding result (serum albumin): no binding
"GGUTGGTGTGGUTGG (ssDNA, dU at 3 and 12) [15-mer dU3 dU12]",–,80,–
